Positions count from the first letter of the chain named.
Experiments:
[1] = test system: CprRD53A / higB DNA fragments; assay: EMSA, CprRD53A binding to higB promoter DNA; parameters: species or system P. aeruginosa; details: 4°C 30 min
Description: (§1) The gene promoters were obtained by PCR. The CprR and DNA fragment were mixed in different ratios (total 10 μL buffer, 25 mM Tris–HCl pH 7.5, 150 mM NaCl, 1 mM MgCl2, 2 mM KCl) and incubated at 4°C for 30 min, then the samples were analyzed by 8% polyacrylamide gel electrophoresis in 0.5 × TBE (Tris/boric acid/EDTA) buffer at 130 V for 120 min. The bands were staining with EB and visualized through BioRad imager.

[2] = test system: CprR / higB DNA fragments; assay: EMSA, CprR binding to higB promoter DNA; parameters: species or system P. aeruginosa; details: 4°C 30 min
Description: as §1

[3] = test system: T1, CprR V192A V193A (Pseudomonas aeruginosa), ORF:b369b159; assay: EMSA
T1 sequence: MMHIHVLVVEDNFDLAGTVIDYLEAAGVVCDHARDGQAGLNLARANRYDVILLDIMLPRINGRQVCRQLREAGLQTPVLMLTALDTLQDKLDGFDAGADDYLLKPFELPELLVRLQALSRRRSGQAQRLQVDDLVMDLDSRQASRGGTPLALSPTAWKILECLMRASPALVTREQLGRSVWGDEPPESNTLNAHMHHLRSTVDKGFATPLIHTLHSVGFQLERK

[4] = test system: T2, CprR (Pseudomonas aeruginosa (PAO1 or PA14; strain of cloned gene not stated)), ORF:b369b159; assay: EMSA
T2 sequence: T1 sequence with A193V

[5] = test system: T3, CprR H214A H215A (Pseudomonas aeruginosa), ORF:b369b159; assay: EMSA
T3 sequence: T1 sequence with A193V, H215A

[6] = test system: T4, CprR N188A N189A (Pseudomonas aeruginosa), ORF:b369b159; assay: EMSA
T4 sequence: T1 sequence with N189A, A193V

[7] = test system: T5, CprR W180A W181A (Pseudomonas aeruginosa), ORF:b369b159; assay: EMSA
T5 sequence: T1 sequence with W181A, A193V

[8] = test system: T6, CprR S187A S188A (Pseudomonas aeruginosa), ORF:b369b159; assay: EMSA
T6 sequence: T1 sequence with S188A, A193V

[9] = test system: T7, CprR R198A R199A (Pseudomonas aeruginosa), ORF:b369b159; assay: EMSA
T7 sequence: T1 sequence with A193V, R199A

[10] = test system: biofilms of uropathogenic E. coli; details: cited from earlier work
Excerpt: In the field of microbiology and immunology, the interaction between host antimicrobial peptides and pathogenic bacteria has been a subject of extensive research. The success of bacterial infections depends on a delicate balance of signals exchanged between microbes and hosts. Cationic antimicrobial peptides, including defensins such as α-defensins, β-defensins, and cathelicidin LL-37, are crucial components of innate host defense against bacterial infections. Numerous studies have shown that LL-37 acts as a shield between the host and the external environment, preventing bact ...

Question: For CC(=O)OP(=O)(O)O [acetyl phosphate (ACP), acetyl phosphate], which “effect of acetyl phosphate on DNA binding of the D53A mutant” value [1] is on record?
Answer: Its value is “unable to exhibit this enhanced binding”.

Question: And the “effect of acetyl phosphate on DNA binding of CprR” value [2]?
Answer: The value was “enhanced the binding of CprR to its target higB DNA fragments”.

Question: What about the “effect of acetyl phosphate on DNA binding of CprR” value ([2]; listed as AcP) of the same compound?
Answer: The value was “enhanced the DNA-binding ability of CprR”.

Question: Which results are given for “CTGGTCGAGTCGATGATGGTGGCCGGGCGCTGAGGCCGGGTTTCCCTCTATAAAACGCCAGCGCTCGTCGCTGGCGTTTTCGTTTCCGCCTGTTCAATTGTCCGCCTCTATGGGGACCATGCTTGTCTTTTGCCAAGAAGAAAACAATAATCAATCTCATTATCGTCTGGTGAGGTTGCC (double strand) [higB promoter (PhigB)]”?
Answer: binding [3]: binds more weakly; binding [4]: binds; binding [5]: binds more weakly; binding [6]: binds more weakly; binding [7]: binds more weakly; binding [8]: binds more weakly; binding [9]: binds more weakly

Question: For Cecropin A, which biofilm disruption [10] is on record?
Answer: The biofilm disruption was “disrupt biofilms of uropathogenic E. coli”.

— paper PMC10805311, “Pseudomonas aeruginosa two-component system CprRS regulates HigBA expression and bacterial cytotoxicity in response to LL-37 stress” (PLOS Pathogens, 2024)
